From patent US20090220535A1 (REGENTS OF THE UNIVERSITY OF COLORADO, published 2009)

T1: HPV11 L1 protein (human papillomavirus type 11, UniProt P04012 1-501)
T1 construct: Full-length HPV11 L1 DNA amplified from pVL11L1
T1 sequence: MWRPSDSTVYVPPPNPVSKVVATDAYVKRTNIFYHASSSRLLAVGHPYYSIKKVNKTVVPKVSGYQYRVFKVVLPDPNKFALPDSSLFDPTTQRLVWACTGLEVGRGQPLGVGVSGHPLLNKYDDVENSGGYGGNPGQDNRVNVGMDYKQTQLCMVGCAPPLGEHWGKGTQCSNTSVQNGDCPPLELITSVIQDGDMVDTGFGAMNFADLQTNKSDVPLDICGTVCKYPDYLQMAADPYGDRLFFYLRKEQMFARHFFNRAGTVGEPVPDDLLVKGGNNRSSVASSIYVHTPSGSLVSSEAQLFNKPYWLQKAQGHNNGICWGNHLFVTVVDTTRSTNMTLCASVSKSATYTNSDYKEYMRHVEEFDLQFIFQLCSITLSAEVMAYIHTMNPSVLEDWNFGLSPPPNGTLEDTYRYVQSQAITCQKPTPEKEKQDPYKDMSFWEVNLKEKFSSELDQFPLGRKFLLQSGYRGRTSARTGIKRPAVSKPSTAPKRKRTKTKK

B1: HPV11 GST-L2 fusion protein, L2 amino acids 157-455 (other)
chain: PLFTEPSVIQPQPPVEASGHILISAPTITSQHVEDIPLDTFVVSSSDSGPTSSTPLPRAFPRPRVGLYSRALQQVQVTDPAFLSTPQRLVTYDNPVYEGEDVSLQFTHESIHNAPDEAFMDIIRLHRPAITSRRGLVRFSRIGQRGSMYTRSGQHIGARIHYFQDISPVTQAAEEIELHPLVAAENDTFDIYAEPFDPIPDPVQHSVTQSYLTSTPNTLSQSWGNTTVPLSIPSDWFVQSGPDITFPTASMGTPFSPVTPALPTGPVFITGSDFYLHPTWYFARRRRKRIPLFFTDVAA
notes: also called pXA/BN-HPV11L2/157-455; not shown: glutathione-S-transferase (GST) fusion partner from vector pXA/BN (multiple cloning site of pGEX-4T-2); thrombin-cleavab
B2: HPV11 GST-L2 fusion protein, L2 amino acids 346-439 (other)
chain: DIYAEPFDPIPDPVQHSVTQSYLTSTPNTLSQSWGNTTVPLSIPSDWFVQSGPDITFPTASMGTPFSPVTPALPTGPVFITGSDFYLHPTWYFA
notes: also called pXA/BN-HPV11L2/346-439; not shown: glutathione-S-transferase (GST) fusion partner from vector pXA/BN (multiple cloning site of pGEX-4T-2); thrombin-cleavab
B3: HPV11 GST-L2 fusion protein, L2 amino acids 1-455 (full length) (other)
chain: MKPRARRRKRASATQLYQTCKATGTCPPDVIPKVEHTTIADQILKWGSLGVFFGGLGIGTGAGSGGRAGYIPLGSSPKPAITGGPAARPPVLVEPVAPSDPSIVSLIEESAIINAGAPEVVPPTQGGFTITSSESTTPAILDVSVTNHTTTSVFQNPLFTEPSVIQPQPPVEASGHILISAPTITSQHVEDIPLDTFVVSSSDSGPTSSTPLPRAFPRPRVGLYSRALQQVQVTDPAFLSTPQRLVTYDNPVYEGEDVSLQFTHESIHNAPDEAFMDIIRLHRPAITSRRGLVRFSRIGQRGSMYTRSGQHIGARIHYFQDISPVTQAAEEIELHPLVAAENDTFDIYAEPFDPIPDPVQHSVTQSYLTSTPNTLSQSWGNTTVPLSIPSDWFVQSGPDITFPTASMGTPFSPVTPALPTGPVFITGSDFYLHPTWYFARRRRKRIPLFFTDVAA
notes: also called pXA/BN-HPV11 L2; not shown: glutathione-S-transferase (GST) fusion partner from vector pXA/BN (multiple cloning site of pGEX-4T-2); thrombin-cleavab
B4: HPV11 GST-L2 fusion protein, L2 amino acids 157-309 (other)
chain: PLFTEPSVIQPQPPVEASGHILISAPTITSQHVEDIPLDTFVVSSSDSGPTSSTPLPRAFPRPRVGLYSRALQQVQVTDPAFLSTPQRLVTYDNPVYEGEDVSLQFTHESIHNAPDEAFMDIIRLHRPAITSRRGLVRFSRIGQRGSMYTRSG
notes: also called pXA/BN-HPV11L2/157-309; not shown: glutathione-S-transferase (GST) fusion partner from vector pXA/BN (multiple cloning site of pGEX-4T-2); thrombin-cleavab
B5: HPV11 GST-L2 fusion protein, L2 amino acids 1-309 (other)
chain: MKPRARRRKRASATQLYQTCKATGTCPPDVIPKVEHTTIADQILKWGSLGVFFGGLGIGTGAGSGGRAGYIPLGSSPKPAITGGPAARPPVLVEPVAPSDPSIVSLIEESAIINAGAPEVVPPTQGGFTITSSESTTPAILDVSVTNHTTTSVFQNPLFTEPSVIQPQPPVEASGHILISAPTITSQHVEDIPLDTFVVSSSDSGPTSSTPLPRAFPRPRVGLYSRALQQVQVTDPAFLSTPQRLVTYDNPVYEGEDVSLQFTHESIHNAPDEAFMDIIRLHRPAITSRRGLVRFSRIGQRGSMYTRSG
notes: also called pXA/BN-HPV11L2/1-309; not shown: glutathione-S-transferase (GST) fusion partner from vector pXA/BN (multiple cloning site of pGEX-4T-2); thrombin-cleavab
B6: HPV33 GST-L2 fusion protein, L2 amino acids 319-467 (other)
chain: GARIHYYQDLSPIVPLDHTVPNEQYELQPLHDTSTSSYSINDGLYDVYADDVDNVHTPMQHSYSTFATTRTSNVSIPLNTGFDTPVMSGPDIPSPLFPTSSPFVPISPFFPFDTIVVDGADFVLHPSYFILRRRRKRFPYFFTDVRVAA
notes: also called HPV33 L2; not shown: glutathione-S-transferase (GST) fusion partner from vector pXA/BN (multiple cloning site of pGEX-4T-2); thrombin-cleavab
B7: HPV6b GST-L2 fusion protein, L2 amino acids 316-459 (other)
chain: RIHYFYDISPIAQAAEEIEMHPLVAAQDDTFDIYAESFEPGINPTQHPVTNISDTYLTSTPNTVTQPWGNTTVPLSLPNDPFLQSGPDITFPTAPMGTPFSPVTPALPTGPVFITGSGFYLHPAWYFARKRRKRIPLFFSDVAA
notes: also called HPV6b L2; not shown: glutathione-S-transferase (GST) fusion partner from vector pXA/BN (multiple cloning site of pGEX-4T-2); thrombin-cleavab
B8: HPV16 GST-L2 fusion protein, L2 amino acids 321-473 (other)
chain: GAKVHYYYDLSTIDPAEEIELQTITPSTYTTTSHAASPTSINNGLYDIYADDFITDTSTTPVPSVPSTSLSGYIPANTTIPFGGAYNIPLVSGPDIPINITDQAPSLIPIVPGSPQYTIIADAGDFYLHPSYYMLRKRRKRLPYFFSDVSLAA
notes: also called HPV16 L2; not shown: glutathione-S-transferase (GST) fusion partner from vector pXA/BN (multiple cloning site of pGEX-4T-2); thrombin-cleavab
B9: HPV1a GST-L2 fusion protein, L2 amino acids 347-507 (other)
chain: GARTHFFYDLSSIAPEDSIELLPLGEHSQTTVISSNLGDTAFIQGETAEDDLEVISLETPQLYSEEELLDTNESVGENLQLTITNSEGEVSILDLTQSRVRPPFGTEDTSLHVYYPNSSKGTPIINPEESFTPLVIIALNNSTGDFELHPSLRKRRKRAYV
notes: range 347-507; also called HPV1a L2; not shown: glutathione-S-transferase (GST) fusion partner from vector pXA/BN (multiple cloning site of pGEX-4T-2); thrombin-cleavab
B10: BPV1 GST-L2 fusion protein, L2 amino acids 316-469 (other)
chain: GPQLHVRYSLSTIHEDVEAIPYTVDENTQGLAFVPLHEEQAGFEEIELDDFSETHRLLPQNTSSTPVGSGVRRSLIPTQEFSATRPTGVVTYGSPDTYSASPVTDPDSTSPSLVIDDTTTTPIIIIDGHTVDLYSSNYTLHPSLLRKRKKRKHA
notes: range 316-469; Cloned as a BamHI/XhoI fragment; also called BPV1 L2; not shown: glutathione-S-transferase (GST) fusion partner from vector pXA/BN (multiple cloning site of pGEX-4T-2); thrombin-cleavab

The molecules below were run against T1, HPV11 L1 protein (assay: co-expression in E. coli, glutathione sepharose eluate, SDS-PAGE).
Protocol: The lysates were then treated with 10 units/ml DNAse I in the presence of 5 mM MgCl2 for 30 minutes. […] Lysates were briefly sonicated, then centrifuged at 17,000 G for one hour and the supernatant was passed over a 10 mL bed volume glutathione sepharose column. […] The columns were washed with buffer L (40 mM Tris-Cl, pH 8.0, 0.2 M NaCl, 1 mM EDTA, 2 mM DTT) until no protein was detectable in the wash (approximately 20 bed volumes). To purify L1+GST-L2 complexes, bound proteins were eluted with 10 mM reduced glutathione in buffer L. The eluates were concentrated using Centriplus concentrators (Amicon). To further purify L1+L2 complexes from contaminating bacterial proteins, free L2 and L2 degradation products, eluted proteins were subjected to size exclusion fast pressure chromatography (FPLC) using a HiLoad Superdex 200 gel filtration column (Pharmacia). FPLC fractions containing complexes were pooled and further concentrated as outlined above. Protein complexes were analyzed by SDS-PAGE followed by Coomassie blue staining or immunoblotting. For densitometric analysis on Coomassie-stained gels, images were captured using a fluor-S MultiImager (Bio-Rad) with Quantity One software (BioRad) and quantitated using ImageQuant software (Molecular Dynamics). Using this strategy, L1 will be present upon elution from glutathione-sepharose only if it is bound to GST-L2.
The ability of each L2 protein to bind HPV11 L1 was determined by the presence or absence of L1 in the eluate from the glutathione sepharose column as measured by SDS-PAGE.
B1: binds.
B2: binds.
B3: binds.
B4: no binding.
B5: no binding.

The molecules below were run against HPV11 L1 protein (human papillomavirus type 11) (UniProt P04012) (assay: co-expression, glutathione sepharose eluate, densitometry of Coomassie-stained SDS-PAGE).
In the case of “COPV1 GST-L2 fusion protein, L2 amino acids 360-513 (from UniProt P08515 1-218)”, the L1:L2 is reported as < 1 L1:L2 ratio.
In the case of “HPV12 GST-L2 fusion protein, L2 amino acids 360-518 (from UniProt P08515 1-218)”, the L1:L2 is reported as < 1 L1:L2 ratio.
With “HPV5 GST-L2 fusion protein, L2 amino acids 376-518 (from UniProt P06918 376-518)” the L1:L2 was < 1 L1:L2 ratio.

Each molecule was assayed against T1, HPV11 L1 protein in the same assay as above.
B6 was tested, and the “L1:L2” value was > 1 L1:L2 ratio.
In the case of B7, the “L1:L2” value is reported as > 1 L1:L2 ratio.
For B8, the “L1:L2” value was > 1 L1:L2 ratio.

The molecules below were run against T1, HPV11 L1 protein (assay: co-expression in E. coli, glutathione sepharose eluate, immunoblot and Coomassie densitometry).
B9: no binding.
B10: no binding.
